Experiment: Compaction assay to assess liquefaction of human CF sputum
Conditions: 0.58 mM in diluent, n=6 per treatment; FIG. 2
Method: Compaction assay to assess liquefaction of human CF sputum. For all manipulations, CF sputum was handled under a microbiologic hood. rhTrx, r(Cys)hTrx or diluent alone (25 microliters), in relevant concentrations, was added to CF sputum (275 microliters) in a 1.5 ml Eppendorf conical tube and mixed by very brief vortexing. After incubation at 37 degrees C. for 30 min, samples were again briefly mixed and loaded into hematocrit tubes and sealed at both ends. After a 5 minute centrifugation in a hematocrit centrifuge, the percent solids (gel) and percent liquid was determined by direct linear measurement and expressed as percent liquid as follows: 100×liquid/(liquid+solids). For each condition, sputum from at least five different CF patients was measured in triplicate.
Comparison of efficacy with standard of care mucolytic agent (rhDNase). For these studies, relevant concentrations of rhTrx, r(Cys)hTrx and rhDNase were compared by incubation as described above. After 30 minutes, samples were assessed for changes in liquefaction of sputum (compaction assay) and alteration of viscoelasticity. In addition, synergy studies were performed. […] For each condition, sputum from at least five different CF patients were measured in triplicate. […]
Human CF sputum collection. Sputum was obtained from adult and pediatric patients with CF as determined by a health care provider. […]

B1: rhDNase: standard of care CF mucolytic Pulmozyme (rhDNase I; dornase alfa) (protein, UniProt P24855 23-282, looked up)
Deoxyribonuclease-1: LKIAAFNIQTFGETKMSNATLVSYIVQILSRYDIALVQEVRDSHLTAVGKLLDNLNQDAPDTYHYVVSEPLGRNSYKERYLFVYRPDQVSAVDSYYYDDGCEPCGNDTFNREPAIVRFFSRFTEVREFAIVPLHAAPGDAVAEIDALYDVYLDVQEKWGLEDVMLMGDFNAGCSYVRPSQWSSIRLWTSPTFQWLIPDSADTTATPTHCAYDRIVVAGMLLRGAVVPDSALPFNFQAAYGLSDQLAQAISDHYPVEVMLK
  liquefaction of patient sputum / mucus-normalizing potency at equimolar concentrations: more potent than equimolar amounts of NAC
